Results as given in publication PMC2798008.

Target: T1, SaeRHis (Staphylococcus aureus USA300, UniProt Q2FIT4 1-228)
T1 sequence: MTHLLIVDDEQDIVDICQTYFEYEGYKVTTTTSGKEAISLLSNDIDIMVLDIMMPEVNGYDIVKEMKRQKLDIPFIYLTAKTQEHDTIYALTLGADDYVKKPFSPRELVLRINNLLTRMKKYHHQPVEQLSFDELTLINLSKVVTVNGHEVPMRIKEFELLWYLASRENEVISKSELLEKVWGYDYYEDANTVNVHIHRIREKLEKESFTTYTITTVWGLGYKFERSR
Experiment: EMSA

B1: sbi promoter (dsDNA)
DNA 1: CACTAGTTAATCTATTAGTTAACATTAGTTAATAATTAGTTAATTTCCAT
DNA 2: ATGGAAATTAACTAATTATTAACTAATGTTAACTAATAGATTAACTAGTG
  binding result: binds

B2: agrB promoter (dsDNA)
DNA 1: ATTTAACAGTTAAGTATTTATTTCCTACAGTTAGGCAATATAATGATAAA
DNA 2: TTTATCATTATATTGCCTAACTGTAGGAAATAAATACTTAACTGTTAAAT
  binding result: no binding
